Experimental findings from the DeepSol protein solubility set are described below.

This data set is described as follows: soluble on expression in E. coli; label from the status in PepcDB or PDB records.
As to “MSLSEIDQVSYNFHIRPILSDKCFACHGPDANKREADLRLDTEEGAFKALKESPGKFALVSGKPEESELFHRITSEDPGELMPPTESNLVLSDTEIGLIKKWIEQGAEYEPHWAFTKAEKPELPSENEWAVNEIDRFVYQKMVEKGLEPNPKADPQELIKRASLDITGLPPSPEILDQYSDLSNDAYQNLLDGLLADPSFGEKLGVLWMDISRYADSYGYQDDNIRSQWPYRDWVIHAFNENMPYDQFITYQLAGDLLPNATKEQILATAFNRNHKYTEEGGVIDEEYRIEYVLDKTNTFSKGVLGITMECAQCHDHKYDPFSQKDYYELFAFFNNTPEKGYEGDVSVSKPAKTPILWVDQEGHHHHHH”, the “soluble on expression in E. coli” value was “soluble”.

Regarding “MGHHHHHHSHGQSLIVLQNVGGGEAGPQEMSGVQLQPLRPAPEVTTVQLQPAQEVTTVQLQPAQEVTTVQLQPAQEVTTVQLQPVAGQLSNSSGGAVATEAPNLLVVQSGAAEELLTGPGPGEAGDGEASTGVVQDVLFETLQTDEGLQSVLVLSGADGEQTRLCVQEVETLPPGLTEPPATGPPGQKLLIIRSAPATELLDSSNTWRRHRPRCNFLAPPAV”, the “soluble on expression in E. coli” value is recorded as “not soluble”.

As to “MSLSYRIDGLQYANWSEKIFRQLRAGNVDAVHVTIAYHESFRETVLNFEKWNRWFEQYPDLIMKGQWASDIDTARETGRTAIFFGFQNPSPIEDDIGLVEILHTLGARFMQLTYNNQSLLATGCYEAEDAGITRMGRQVIKEMNRVGLVVDMSHSADRSTIEAVEISERPIAITHANPHDWAPALRNKRDDVIRAVTENGGMLGFSVYPHHLKDKSDCTLDSFCEMIARTAERYGVDHLGIGTDLCQDQPDSVVEWMRTGRWSKEIDFGEGSASAPGFPPMPHWFEDNRDFGNIENGLRATGLNKDEVAGIMGGNWYRFFAQNFVPQGEGHHHHHH”, the “soluble on expression in E. coli” value is listed as “soluble”.

Consider “MSLIIYGYCRVSTKNQTDNNSLYQQQQEILNKYNDAKIIKETYTGTTTNRPKFEKIISSLKKGDLLVATKLDRLARSTSEGIQLIEGLFAKEVSVHILNIGLLENTSMGKFFLTTLLAVAELERNMIIERTQLGKEFAKKKKDFKDGRPKKYSNQQIQYALGLLNSKPYREVVKMTGISKSTLIRAKKSIEGHHHHHH”, for which the “soluble on expression in E. coli” value is reported as “soluble”.

Consider “MPGHTSWDATFLEPAPPLPHPSECGQPCVSGQSQMFQHRTTNAQGPPPNRPMPRPPAGMPMMTSSHEHDYTNDYEDPEEMARSRGEGFSNHLLIKTTPPPQPHPNFNSYEMSMSQQRRSQQHQQPMAPPLSDCWGSGVHDSGVLHKNADGAYYIPSGSCKF”, for which the “soluble on expression in E. coli” value was “not soluble”.

In the case of “ASNVHRVQQVIHAAIATNRKLAVAGRSMVKVVSIAERLGYLEAPDDLFIDIEEVSKYDDERVAIITTGSQGEPMSALSRMAKGAHRQITITENDTVIIAATPIPGNERSVSTIVDLLHRIGADVIFGHGKVHASGHGSAEELKLMLNLMRPKFFVPIHGEFRMQHAHKELAKSVGIREEAIFLVDKGEVVEFRNGQGRKAGKVPSGNVLIDGLGVGDVGNIVLRDRRLLSKDGILVVVVTLNKQSGTILSGPNIISRGFVYVRESEKLIEEANELVTETLKKCVTENVNEWSSLKSNVREVLSRFLFEKTKRRPMILPIIME”, the “soluble on expression in E. coli” value is “soluble”.

Take “MPRRRGSSSSSSAAGGSGGGGGFGFSSLRRELHLHNFFRTSSPSASSTSRTPPAALPPRTSAVTIPGSNHKLTSSASSYHPPRELTVSTFSAGSATAADGLGGAHLTPSLSSSVHARRESFLYRASDDLREASSLRPVSRASSIASNEHGYVILYIFL”: the “soluble on expression in E. coli” value is on record as “not soluble”.

For the sequence “MGSDKIHHHHHHMPSTFESQLFFSRPFLSKRQIQRAQKNTISDYRNYNQKKLAVFKFLSDLCVQLKFPRKTLETAVYFYQRYHLFNRFETEVCYTVATSCLTLGCKEVETIKKTNDICTLSLRLRNVVKINTDILENFKKRVFQIELRILESCSFDYRVNNYVHIDEYVIKIGRELSFDYKLCNLAWVIAYDALKLETILVIPQHSIALAILKIAYELLDNKNWSSKRYSLFETDEKSVNEAYFDIVNFYINSFDMCDLQRHLPADLLPIGVERFMELKKNAGPESGLPQIPDHLLNADPYITITRDNNVQERRYVLSLELINGESSINSSTRHA”, the “soluble on expression in E. coli” value is recorded as “not soluble”.

With “MSLASLRVLALACLPLFAVLHADAKTLLGKVKRATGMGVGEGPSVAKKPKYTATVPGFTPPSGDQRMNEFMAVDTSGEFMRHLYIEEGRTVCASATSRNRRPTSESPHSDDVVVVEGMLRGRPETRVHAMFDGFQGRHSAMWLAQNVMNYLNDLRDVNEEEITRQFERMDGDLRAANLPGGSSALIIFVRYEKKPTEARVVGRQIVPEGAKEFTSVAEALGGPLMPVVAMNFRRDPRAAKGIYTIHVASLGNSRCVLKSGRTAIHLSTPHTASSHKERHRVQAAGGVFTTVNGELLLGGVVPMTRAFGSFDFKKGGQGKLQQDLVSAVPDVTTFFAYPGDDEGHHHHHH”, the “soluble on expression in E. coli” value is “not soluble”.

Regarding “MNQKAVILDEQAIRRALTRIAHEMIERNKGMNNCILVGIKTRGIYLAKRLAERIEQIEGNPVTVGEIDITLYRDDLSKKTSNDEPLVKGADIPVDITDQKVILVDDVLYTGRTVRAGMDALVDVGRPSSIQLAVLVDRGHRELPIRADYIGKNIPTSKSEKVMVQLDEVDQNDLVAIYENE”, the “soluble on expression in E. coli” value was “soluble”.

For the sequence “MGTKQYKDGTYYAEADDFDESGWKDTVTIEVKNGKIVSVDWNAINKDGGDDKDTLSRNGGYKMVEYGGAQAEWHEQAEKVEAYLVEKQDPTDIKYKDNDGHTDAISGATIKVKKFFDLAQKALKDAEKLEHHHHHH”, the “soluble on expression in E. coli” value is recorded as “soluble”.

With “MQFLSPLILFTSCTLLATSLLAAEQAPPPSECLIKSQQISSQIQDAKTEGNKAEQSGLEKALAEVNANCTETSLLKQREQKVLDAKREVSRRQTDLNKAMDKGDPEKINKRKDKLAESRKELQEAQTDLEKVQSDDLEHHHHHH”, the “soluble on expression in E. coli” value is “not soluble”.

Take “MSVIIVGGGMAGATLALAISQFSHGTLPVHLIEAKAPEADGHPGFDARAIALAAGTCQQLARIGVWLAISDCATAINTVHVSDRGHAGFVTLDAQDYSLAALGHVAELHDIGLRLFALLRKAPGVTLHCPERVASVSRTQQQVNVTLENGNVIAGSVLVAANGTHSALASACGVDWHQEPYEQLAVIANVATAIPHQGRAFERFTPNGPLAMLPMSHGRCSLVWCHPLDQRDEVLSWSDAQFCHALQAAFGWRLGRITQAGKRSAYPLALTTAAKVFTHRTVVVGNAAQTLHPIAGQGFNLGLRDVMSLAETLVAAQDAGEDIGAWHVLSRYQQRRQVDRDTTIGVTNGLVHLFANRWAPLVIGRNIGLMAMELLPPARDALAQRTLGWVARLEHHHHHH”: the “soluble on expression in E. coli” value is “soluble”.

Take “MDILLVDGYNMIGAWPQLKDLKANSFEEARDVLIQKMAEYQSYTGNRVIVVFDAHLVKGLEKKQTNHRVEVIFTKENETADERIEKLAQALNNIATQIHVATSDYTEQWAIFGQGALRKSARELLREVETIERRIERRVRKITSEKPAGKIALSEEVLKTFEKWRRGDLDLEHHHHHH”: the “soluble on expression in E. coli” value was “not soluble”.

As to “LEQLSMNLLDGALRIEHFALPQTKVAYLHLSQINFEQILALLKYQQIELKGRANATFPFWIEGKPCYVCNGSMAQAVSSRLKIAPELMQAISQSNGYSERLLAYLLHDTRITDLTSKVNINSEGEMALQAKLNMQLNQQAQTKINFNYHHQENVFKLWRTLNAGTYVEQNFENSIYQKLDRTNE”, the “soluble on expression in E. coli” value was “not soluble”.

As to “GHMREMLQVERPKLILDDGKRTDGRKPDELRSIKIELGVLKNADGSAIFEMGNTKAIAAVYGPKEMHPRHLSLPDRAVLRVRYHMTPFSTDERKNPAPSRREIELSKVIREALESAVLVELFPRTAIDVFTEILQADAGSRLVSLMAASLALADAGIPMRDLIAGVAVGKADGVIILDLNETEAMWGEADMPIAMMPSLNQVTLFQLNGSMTPDEFRQAFDLAVKGINIIYNLEREALKSKYVEFKEEGV”, the “soluble on expression in E. coli” value is “soluble”.

For the sequence “MSLENTEKLKNSKEVIAYIAECFPNCFTLEGEAKPLKIGIFQDLADRLNDDPKVSKTQLRAALRQYTSSWRYLHGVKPGATRVDLDGNPCGELEEQHVEHAQAALAESKARVEARRKEQVKKVREEAKANKPKAKKPQQARRPQNAPKVEKKPVETRALAASELNVGNQVNVNMGKGNMAATIVEVNKEDVRVQLANGLQMVVKAEHLRAEGGSHHHHHH”, the “soluble on expression in E. coli” value was “soluble”.
